From patent publication US20210388105A1 (ELPISCIENCE SUZHOU BIOPHARMA, published 2021) come the findings set out here.

The term EC50 denotes the concentration giving half of the maximal effect. Higher therefore signals lower potency in that assay.

In test [1] the target is T1, human CD39 (full length, on cells) (human, UniProt P49961 1-510).
T1 construct: Recombinant on CHOK1-hCD39 cells or natural on SK-MEL-28, SK-MEL-5 and MOLP-8 cells; the cell line is named under assay; also called hCD39; ENTPD1
T1 sequence: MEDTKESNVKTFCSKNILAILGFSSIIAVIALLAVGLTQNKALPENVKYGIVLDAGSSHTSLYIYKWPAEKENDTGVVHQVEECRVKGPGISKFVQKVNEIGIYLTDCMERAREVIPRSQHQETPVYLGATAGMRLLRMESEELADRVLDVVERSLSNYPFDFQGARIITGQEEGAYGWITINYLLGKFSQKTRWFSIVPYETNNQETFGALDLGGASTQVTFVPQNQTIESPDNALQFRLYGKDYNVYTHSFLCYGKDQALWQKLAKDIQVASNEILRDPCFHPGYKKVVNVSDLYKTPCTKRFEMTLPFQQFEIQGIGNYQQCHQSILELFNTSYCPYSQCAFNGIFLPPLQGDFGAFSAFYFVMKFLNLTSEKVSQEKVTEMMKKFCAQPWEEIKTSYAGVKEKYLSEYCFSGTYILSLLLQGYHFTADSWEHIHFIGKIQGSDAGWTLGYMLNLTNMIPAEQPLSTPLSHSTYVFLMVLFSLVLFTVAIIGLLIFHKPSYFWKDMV
The test is described as follows: FACS, SK-MEL-28 cells. The protocol:
Similarly, human CD39 expressing cells SK-MEL-5, SK-MEL-28 or MOLP-8, were incubated with a gradient concentration of anti-CD39 antibodies for 30 minutes at 4° C. Cells were washed 3 times using FACS buffer and next incubated with fluorescence labelled secondary antibody (goat-anti-mouse IgG or goat anti-human IgG) for 30 minutes at 4° C. Cells were washed 3 times and then re-suspended in FACS buffer and analyzed by flow cytometry analysis on BD Celesta. Data plotted and analyzed using GraphPad Prism 8.02.
Binding affinity of the humanized antibodies hu23.H5L5 and hu14.H1L1 were tested on different cells by FACS following the similar method as described in Example 3.2.
Reference antibodies T895 and 1394 were tested in parallel as control antibodies. As shown in FIG. 12 and summarized in Table 23, both antibodies hu23.H5L5 and hu14.H1L1 bound to human and cynomolgus CD39 expressing cells in a dose-dependent manner and with similar affinity by EC₅₀ at a sub-nanomolar or nanomolar level. Neither of them recognized mouse CD39 in the FACS study. Maximum signal (mean fluorescence intensity, MFI) differed between cells for each antibody may result from their different expression level.
On the technique in general: Flow cytometry measures light scatter and fluorescence of single cells or particles in a stream.

Test [2] deals with T2, KW27-17 (human CD39 mutant, C-terminal EGFP) (human, UniProt P49961 1-510).
T2 construct: expressed on HEK293F cells; not shown: C-terminal EGFP fusion (vector pCMV3-GFPSpark)
T2 chain: T1 sequence with Q323A, Q324A, Q327A, E331K
The test is described as follows: FACS, mutant-EGFP on HEK293F cells. The procedure, abridged: (§1)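 HEK293F cells were transfected with human CD39 mutants carrying C-terminal GFP and used 3 days later. Antibodies were titrated from 100 nM (3-fold, 11 points) and detected by FACS with AlexaFluor647 anti-hIgG. Relative binding was AlexaFluor647 intensity divided by GFP intensity.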

The target in test [3] is T3, KW27-11 (human CD39 mutant, C-terminal EGFP) (human, UniProt P49961 1-510).
T3 construct: expressed on HEK293F cells; 'D3565' as printed is read as D356S; not shown: C-terminal EGFP fusion (vector pCMV3-GFPSpark)
T3 chain: T1 sequence with Q354A, D356S, E435A, H436Q
The test is described as follows: FACS, mutant-EGFP on HEK293F cells. The procedure, abridged: as §1

Numbering of substitutions follows the chain as printed.

B1: hu23.H5L5 (antibody, V domains shown)
VH: QVQLVQSGAEVKKPGASVKVSCKASGYNLKDTFLHWVRQAPGQGLEWMGRIDPANGNIKYDPKFQGRVTITADTSANTAYMELISLRSEDTAVYYCANSPYYYGSGYRIFDVWGQGTTVTVSS
VL: QIVLTQSPATLSLSPGERATLSCSAFSSVNYMHWYQQKPGQAPRLLIYTTSNLASGIPTRFSGSGSGTSYTLTISSLEPEDFAVYYCQQRSTYPFTFGQGTKLEIK
notes: humanized c23
As to B1, in test [1], the EC50 came out at 0.99 nM. Moreover, the binding result in test [2] and in test [3] was “binds” each time.

B2: Antibody T895 (antibody, V domains shown)
VH: EVQLQQSGPELVKPGASVKMSCKASGYTFTDYNMHWVKQSHGRTLEWIGYIVPLNGGSTFNQKFKGRATLTVNTSSRTAYMELRSLTSEDSAAYYCARGGTRFAYWGQGTLVTVSA
VL: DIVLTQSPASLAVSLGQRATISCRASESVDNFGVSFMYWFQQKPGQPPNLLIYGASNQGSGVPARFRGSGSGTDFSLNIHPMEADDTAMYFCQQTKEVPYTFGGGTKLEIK
notes: also called 31895
In test [1], B2 showed an EC50 of 0.36 nM. Moreover, the binding result in test [2] and in test [3] was “binds” each time.

B3: c34 (antibody, V domains shown)
VH: EIQVQQSGPELVKPGASVKVSCKASGYSFTDYNMYWVKQSHGKSLEWIGFIDPYNGYTSYNQKFKGKATLTIDKSSSTAFMHLNSLTSEDSAVYYCAIYGYDDAYYFDYWGQGTTLTVSS
VL: QIVLTQSPAIMSASPGEKVTITCSATSSVSYMHWFRQKPGTSPKLWIYSTSNLASGVPARFSGSGSGTSYSLTISRMAAEDAATYYCQQRITYPFTFGSGTKLEIT
notes: its making is not described; also called chimeric antibody c34
For B3, the binding result in test [2] and in test [3] was “binds” each time.

B4: Antibody 9-8B (antibody, V domains shown)
VH: QIQLVQSGPELKKPGETVKISCKASGYTFTHYGMNWVKQAPGKGLKWMGWINTYTGELTYADDFKGRFAFSLETSASTAYLQINNLKNEDTATYFCARRAYYRYDYVMDYWGQGTSVTVSS
VL: DIVMTQSQKFMSTSVGDRVSVTCKASHNVGTNVAWYQQKPGQSPKALIYSASYRYSGVPGRFTGSGSGTDFTLTISNVQSEDLAEYFCHQYNNYPYTFGGGTKLEIK
As for B4, the binding result in test [2] and in test [3] was “binds” throughout.

B5: c35 (antibody, V domains shown)
VH: EVRLQQSGAELVKPGASVKLSCTASGFNIEDTYVHWMKQRPEQGLEWIGRIDPAIDNSKYDPKFQGKATITAVSSSNTAYLQLSSLTSEDTAVYYCALYDGYNVYAMDYWGQGTSVTVSS
VL: DIVMTQAAFSNPVTLGTSASISCRSSKNLLHSNGITYLYWYLQRPGQSPQLLIYRASTLASGVPNRFSGSESGTDFTLRISRVEAEDVGVYYCAQLLELPHTFGGGTKLEIK
notes: its making is not described; also called chimeric antibody c35
In the case of B5, the binding result in test [2] and in test [3] was “binds” in each case.
